Experimental data published in paper PMC6974733, “Rap1‐mediated nucleosome displacement can regulate gene expression in senescent cells without impacting the pace of senescence”.
Positions count from the first letter of the chain named. Names may count otherwise. Blank lines part the entries; values can stand above or below the binder they belong to.

Columns and labels:
[1] = target: histone H3/H4 tetramers, P61830;P02309; assay: GST pull-down, H3 immunoblot quantitation; details: chain shown with the change, read off a plot; for ratio to parent: 0.5 μM GST-SANT, 0.5 μM histones, 400 mM NaCl, N = 2, parent: est. 1.0; for response: 2 μM Rap1 truncated constructs, 2 μM H3/H4, 400 mM NaCl, N = 3, scale: relative H3 signal
Rap1SHY [2] = target: T1, Rap1SHY (Saccharomyces cerevisiae? (budding …, UniProt P11938 1-827, S392A;H393A;Y394A)); assay: EMSA; 5-50 nM protein; affinity similar to Rap1; 20 mM Hepes-KOH pH 8, 100 mM KCl, 10 ug/ml BSA, 1 mM EDTA, 2 mM MgCl2, 5% glycerol, 30 min at room temperature; 0.5 nM 32P duplex; 6% gel run at 4 C; concentrations of active protein (~85% active); details: protein: recombinant; tags: N-terminal GST, C-terminal 6xHis (pGST-RAP1 SHY-6xHis); label: 32P 5' end label on one strand (PNK); blunt
T1 sequence: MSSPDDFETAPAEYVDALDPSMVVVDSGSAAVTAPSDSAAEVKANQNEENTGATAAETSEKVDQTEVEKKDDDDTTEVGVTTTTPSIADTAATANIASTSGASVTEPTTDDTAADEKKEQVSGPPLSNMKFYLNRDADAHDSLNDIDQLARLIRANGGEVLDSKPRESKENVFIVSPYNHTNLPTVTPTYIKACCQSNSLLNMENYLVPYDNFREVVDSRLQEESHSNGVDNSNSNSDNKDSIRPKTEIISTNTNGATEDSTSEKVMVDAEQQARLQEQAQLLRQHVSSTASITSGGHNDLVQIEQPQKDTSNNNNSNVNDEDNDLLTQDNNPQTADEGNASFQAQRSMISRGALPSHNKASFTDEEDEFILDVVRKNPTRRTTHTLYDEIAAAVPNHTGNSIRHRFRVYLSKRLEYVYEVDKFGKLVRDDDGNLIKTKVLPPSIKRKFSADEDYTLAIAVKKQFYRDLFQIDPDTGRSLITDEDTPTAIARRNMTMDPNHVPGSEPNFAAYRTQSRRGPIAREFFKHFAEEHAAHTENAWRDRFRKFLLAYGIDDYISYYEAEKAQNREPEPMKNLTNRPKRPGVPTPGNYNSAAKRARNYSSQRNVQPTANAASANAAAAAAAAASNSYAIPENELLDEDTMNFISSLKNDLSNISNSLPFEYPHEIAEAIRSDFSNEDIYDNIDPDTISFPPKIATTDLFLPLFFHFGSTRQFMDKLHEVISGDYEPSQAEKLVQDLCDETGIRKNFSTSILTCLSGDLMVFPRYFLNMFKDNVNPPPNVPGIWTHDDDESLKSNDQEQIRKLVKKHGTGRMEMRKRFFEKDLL

Rap1 [3] = target: T2, Rap1 (Saccharomyces cerevisiae? (budding …, UniProt P11938 1-827)); assay: EMSA; 5-50 nM protein; affinity similar to Rap1SHY; 20 mM Hepes-KOH pH 8, 100 mM KCl, 10 ug/ml BSA, 1 mM EDTA, 2 mM MgCl2, 5% glycerol, 30 min at room temperature; 0.5 nM 32P duplex; 6% gel run at 4 C; concentrations of active protein (~85% active); details: protein: recombinant; tags: N-terminal GST, C-terminal 6xHis (Ni-NTA and GST resin purified); label: 32P 5' end label on one strand (PNK); blunt
T2 sequence: T1 sequence with A392S, A393H, A394Y

Rap1 [4] = target: T2, Rap1; assay: EMSA; 5-500 nM protein; affinity similar to Rap1SHY; 20 mM Hepes-KOH pH 8, 100 mM KCl, 10 ug/ml BSA, 1 mM EDTA, 2 mM MgCl2, 5% glycerol, 30 min at room temperature; 0.5 nM 32P duplex; 6% gel run at 4 C; concentrations of active protein (~85% active); details: protein: recombinant; tags: N-terminal GST, C-terminal 6xHis (Ni-NTA and GST resin purified); label: 32P 5' end label on one strand (PNK); blunt
Rap1SHY [5] = target: T1, Rap1SHY; assay: EMSA; 5-500 nM protein; affinity similar to Rap1; 20 mM Hepes-KOH pH 8, 100 mM KCl, 10 ug/ml BSA, 1 mM EDTA, 2 mM MgCl2, 5% glycerol, 30 min at room temperature; 0.5 nM 32P duplex; 6% gel run at 4 C; concentrations of active protein (~85% active); details: protein: recombinant; tags: N-terminal GST, C-terminal 6xHis (pGST-RAP1 SHY-6xHis); label: 32P 5' end label on one strand (PNK); blunt
Rap1 [6] = target: T2, Rap1; assay: EMSA; 0.5-100 nM protein; lower affinity than Rap1SHY; 20 mM Hepes-KOH pH 8, 100 mM KCl, 10 ug/ml BSA, 1 mM EDTA, 2 mM MgCl2, 5% glycerol, 30 min at room temperature; 0.5 nM 32P duplex; 6% gel run at 4 C; concentrations of active protein (~85% active); details: protein: recombinant; tags: N-terminal GST, C-terminal 6xHis (Ni-NTA and GST resin purified); label: 32P 5' end label on one strand (PNK); blunt
Rap1SHY [7] = target: T1, Rap1SHY; assay: EMSA; 0.5-100 nM protein; higher affinity than Rap1; 20 mM Hepes-KOH pH 8, 100 mM KCl, 10 ug/ml BSA, 1 mM EDTA, 2 mM MgCl2, 5% glycerol, 30 min at room temperature; 0.5 nM 32P duplex; 6% gel run at 4 C; concentrations of active protein (~85% active); details: protein: recombinant; tags: N-terminal GST, C-terminal 6xHis (pGST-RAP1 SHY-6xHis); label: 32P 5' end label on one strand (PNK); blunt

ratio to parent [1]: 0.82
B1: GST-SANT, P11938 D389A; E390A; I391A (protein)
chain: KASFTDEEDEFILDVVRKNPTRRTTHTLYAAASHYVPNHTGNSIRHRFRVY

ratio to parent [1]: 0.97
B2: GST-SANT, P11938 N401A; S402A; I403A (protein)
chain: B1 chain with A30D, A31E, A32I, N42A, S43A, I44A

ratio to parent [1]: 0.21
B3: GST-SANT, P11938 S392A; H393A; Y394A (protein)
chain: B1 chain with A30D, A31E, A32I, S33A, H34A, Y35A

ratio to parent [1]: 0.62
B4: GST-SANT, P11938 H398A; T399A; G400A (protein)
chain: B1 chain with A30D, A31E, A32I, H39A, T40A, G41A

response ([1]; parent: est. 0.68): 0.47
B5: GST-Rap1^CΔ, P11938 S392A; H393A; Y394A (protein)
chain: MSSPDDFETAPAEYVDALDPSMVVVDSGSAAVTAPSDSAAEVKANQNEENTGATAAETSEKVDQTEVEKKDDDDTTEVGVTTTTPSIADTAATANIASTSGASVTEPTTDDTAADEKKEQVSGPPLSNMKFYLNRDADAHDSLNDIDQLARLIRANGGEVLDSKPRESKENVFIVSPYNHTNLPTVTPTYIKACCQSNSLLNMENYLVPYDNFREVVDSRLQEESHSNGVDNSNSNSDNKDSIRPKTEIISTNTNGATEDSTSEKVMVDAEQQARLQEQAQLLRQHVSSTASITSGGHNDLVQIEQPQKDTSNNNNSNVNDEDNDLLTQDNNPQTADEGNASFQAQRSMISRGALPSHNKASFTDEEDEFILDVVRKNPTRRTTHTLYDEIAAAVPNHTGNSIRHRFRVYLSKRLEYVYEVDKFGKLVRDDDGNLIKTKVLPPSIKRKFSADEDYTLAIAVKKQFYRDLFQIDPDTGRSLITDEDTPTAIARRNMTMDPNHVPGSEPNFAAYRTQSRRGPIAREFFKHFAEEHAAHTENAWRDRFRKFLLAYGIDDYISYYEAEKAQNREPEPMKNLTNRPKRPGVPTPGNYNSAAKRAR

B6: TEF2 promoter Rap1 site (dsDNA)
DNA 1: TGTTGCACCCACACATTTA
DNA 2: TAAATGTGTGGGTGCAACA
binding result (Rap1SHY [2]): binds | binding result (Rap1 [3]): binds

response ([1]; parent: est. 1.3): 0.71
B7: GST-Rap1^643Δ S392A; H393A; Y394A (protein)
chain: MSSPDDFETAPAEYVDALDPSMVVVDSGSAAVTAPSDSAAEVKANQNEENTGATAAETSEKVDQTEVEKKDDDDTTEVGVTTTTPSIADTAATANIASTSGASVTEPTTDDTAADEKKEQVSGPPLSNMKFYLNRDADAHDSLNDIDQLARLIRANGGEVLDSKPRESKENVFIVSPYNHTNLPTVTPTYIKACCQSNSLLNMENYLVPYDNFREVVDSRLQEESHSNGVDNSNSNSDNKDSIRPKTEIISTNTNGATEDSTSEKVMVDAEQQARLQEQAQLLRQHVSSTASITSGGHNDLVQIEQPQKDTSNNNNSNVNDEDNDLLTQDNNPQTADEGNASFQAQRSMISRGALPSHNKASFTDEEDEFILDVVRKNPTRRTTHTLYDEIAAAVPNHTGNSIRHRFRVYLSKRLEYVYEVDKFGKLVRDDDGNLIKTKVLPPSIKRKFSADEDYTLAIAVKKQFYRDLFQIDPDTGRSLITDEDTPTAIARRNMTMDPNHVPGSEPNFAAYRTQSRRGPIAREFFKHFAEEHAAHTENAWRDRFRKFLLAYGIDDYISYYEAEKAQNREPEPMKNLTNRPKRPGVPTPGNYNSAAKRARNYSSQRNVQPTANAASANAAAAAAAAASNSYAIPENELLDEDT

B8: GAC1 NRTS promoter (dsDNA)
DNA 1: AATAATACATCACATTAACTGTCTATAAGAGGCTGGTAC
DNA 2: GTACCAGCCTCTTATAGACAGTTAATGTGATGTATTATT
dissociation constant (Kd) (Rap1 [4]): ~10 fold vs TEF2 (printed: Kd approximately 10-fold lower than in B; titration range suggests affinity is meant) | dissociation constant (Kd) (Rap1SHY [5]): ~10 fold vs TEF2 (printed: Kd approximately 10-fold lower than in B; titration range suggests affinity is meant)

B9: TeloA telomeric sequence (dsDNA)
DNA 1: GCCGCACACCCACACACCAGTG
DNA 2: CACTGGTGTGTGGGTGTGCGGC
binding result (Rap1 [6]): binds | binding result (Rap1SHY [7]): binds
